Measurements: patent US20230099801A1, “RESTORATION OF T CELL ACTIVITY VIA THE CD39/CD73 AXIS” (INNATE PHARMA, priority 2017, published 2023)
Entries after “also recorded” stand apart in the source; their conditions may differ.

How the values were obtained:
[1] = target: T1, Human CD39-L1 (NTPDase2, ENTPD2) (Homo sapiens, UniProt Q9Y5L3); assay: ELISA titration on CD39-L1; format: binding
T1 sequence (Q9Y5L3 1-472 isoform Q9Y5L3-2): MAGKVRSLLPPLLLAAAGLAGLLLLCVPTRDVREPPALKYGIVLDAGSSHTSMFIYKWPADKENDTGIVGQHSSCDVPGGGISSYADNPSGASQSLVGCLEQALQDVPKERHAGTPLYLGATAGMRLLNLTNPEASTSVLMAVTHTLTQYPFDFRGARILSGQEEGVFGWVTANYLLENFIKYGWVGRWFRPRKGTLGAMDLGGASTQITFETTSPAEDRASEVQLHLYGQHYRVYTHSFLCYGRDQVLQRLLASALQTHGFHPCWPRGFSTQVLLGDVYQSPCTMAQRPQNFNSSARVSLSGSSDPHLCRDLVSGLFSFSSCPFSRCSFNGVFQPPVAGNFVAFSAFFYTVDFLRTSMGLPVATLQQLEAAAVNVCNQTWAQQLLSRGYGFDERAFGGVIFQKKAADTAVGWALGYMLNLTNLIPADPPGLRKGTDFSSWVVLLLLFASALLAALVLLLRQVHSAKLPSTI
Description: (§1) Wells were washed in TBS Tween 20, and further saturated 2H at RT in TBS Blocking buffer. Dose range concentration of primary antibody was incubated in TBS blocking buffer for 2h at RT. Wells were washed in TBS Tween 20. […] Optical density was measured on Enspire™ at OD=450.

[2] = test system: monocyte-derived DC (moDC); assay: Activation of dendritic cells in presence of ATP; format: cell-based, human; details: ATP at each of 0.125 mM, 0.25 mM or 0.5 mM; I-394 at 10 μg/ml
Description: While ATP has pro-inflammatory activity, CD39-mediated catabolism of ATP is believed to be able to impair dendritic cell (DC) activation, in turn altering a broader adaptive immune response against tumor antigen. In order to evaluate whether CD39 blockade using anti-CD39 antibodies could overcome CD39-mediated alteration of dendritic cell (DC) activation in the presence of ATP, we incubated monocyte-derived DC (moDC) with anti-CD39 antibodies in the presence of ATP.
Briefly, human monocytes were purified from human healthy blood and differentiated into MoDC in presence of GM-CSF and IL-4 during 6 days. […] LPS (Invivogen, 10 ng/ml) was used as positive control. To assess resulting effect of ATP-mediated DC activation on CD4 T cells activation, ATP-activated DC were washed and then incubated with allogenic CD4 T cells (ratio 1 MoDC/4 T cells) for a mixed lymphocytes reaction (MLR) during 5 days. T cells activation and proliferation were analyzed through CD25 expression and Cell Trace Violet dilution by flow cytometry (FIG. 8).

[3] = test system: CHO cells expressing cynomolgus CD39 (CHO-cyCD39); assay: Antibody titration on CHO-cyCD39 cells by flow cytometry; format: binding, cynomolgus (Macaca fascicularis)
Description: (§2) Cells were incubated with various concentration of unlabeled anti-CD39 antibody from 30 μg/ml to 5×10^−4 μg/ml, for 30 minutes at 4° C. After washes, cells were incubated with Goat anti-mouse H+L labeled secondary antibody for 30 min at 4° C.

human CD39 = target: T2, human CD39 (Homo sapiens, UniProt P49961); assay: ELISA titration on recombinant human CD39; format: binding
T2 sequence (P49961 1-510): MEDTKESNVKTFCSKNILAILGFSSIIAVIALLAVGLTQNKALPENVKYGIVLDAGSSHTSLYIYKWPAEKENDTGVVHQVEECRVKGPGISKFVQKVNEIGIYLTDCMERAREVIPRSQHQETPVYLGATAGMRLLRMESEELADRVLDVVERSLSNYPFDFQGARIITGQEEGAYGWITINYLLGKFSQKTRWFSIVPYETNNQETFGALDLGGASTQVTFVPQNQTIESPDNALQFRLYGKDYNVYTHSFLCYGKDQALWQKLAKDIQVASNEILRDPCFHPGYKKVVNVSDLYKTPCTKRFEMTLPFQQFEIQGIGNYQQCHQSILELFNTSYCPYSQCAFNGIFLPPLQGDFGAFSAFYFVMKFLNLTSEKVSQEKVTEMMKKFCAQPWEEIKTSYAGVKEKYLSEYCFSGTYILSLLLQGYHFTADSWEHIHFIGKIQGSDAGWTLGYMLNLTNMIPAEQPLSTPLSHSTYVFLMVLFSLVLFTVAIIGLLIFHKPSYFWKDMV
Description: as §1

[4] = target: T3, CHO cells expressing human CD39 (CHO-huCD39) (Homo sapiens, UniProt P49961); assay: Antibody titration on CHO-huCD39 cells by flow cytometry; format: binding
T3 construct: expressed in transfected cells; host or cells: CHO cells
T3 sequence (P49961 1-510): T2 sequence (P49961 1-510)
Description: as §2

human CD39 (CHO-huCD39) = target: T4, human CD39 (CHO-huCD39) (Homo sapiens, UniProt P49961); assay: Inhibition of cellular CD39 ATPase activity in CHO-huCD39 cells; format: cell-based
T4 construct: expressed in transfected cells; host or cells: CHO cells
T4 sequence (P49961 1-510): T2 sequence (P49961 1-510)
Description: (§3) The inhibition of the CD39 enzymatic activity in CD39-expressing cells by antibodies was evaluated using Cell Titer Glo™ (Promega, reference G7571) that allows assessment of ATP hydrolysis through use of a reagent that generates a luminescent signal proportional to the amount of ATP present. The assay was thus designed to permit assessment of the inhibition of ATP hydrolyzed by CD39 in the cell culture supernatant. Briefly, 5×10^4 Ramos human lymphoma cells, 5×10^3 human CD39-, cynomolgus CD39—and mouse CD39-expressing CHO cells, were incubated 1 hour at 37° C. with anti-CD39 antibodies from 30 μg/ml to 5×10^−4 μg/ml. Cells were then incubated with 20 μM ATP for 1 additional hour at 37° C. Plates were centrifuged for 2 min at 400 g and 50 μl cell supernatant are transferred in a luminescence microplate (white wells). 50 μl CellTiter-Glo® Reagent (CTG) was added to the supernatant and emitted light was quantified after a 5 min incubation in the dark using a Enspire™ luminometer. Anti-CD39 antibody efficacy was determined by comparing emitted light in presence of antibody with ATP alone (maximal light emission) and ATP together with cells (minimal light emission).

[5] = target: T5, cell-membrane bound CD39 (CD39-expressing cells) (Homo sapiens, UniProt P49961); assay: Inhibition of the enzymatic activity of cellular CD39, Cell Titer Glo; format: cell-based
T5 construct: host or cells: CD39-expressing cells
T5 sequence (P49961 1-510): T2 sequence (P49961 1-510)
Description: The ability of an antibody to inhibit cells expressing CD39 protein can be tested by detecting ATP after incubating test antibody with cells (e.g., Ramos cells, cells transfected with CD39, etc.). See, e.g., Example 1. Cells can be incubated for 1 hour at 37° C. with test antibody. Cells are then incubated with 20 μM ATP for 1 additional hour at 37° C. Plates are centrifuged for 2 min at 400 g and cell supernatant are transferred in a luminescence microplate (white wells). CTG is added to the supernatant and emitted light is quantified after a 5 min incubation in the dark using an Enspire™ luminometer. Anti-CD39 antibody efficacy is determined by comparing emitted light in presence of antibody with ATP alone (maximal light emission) and ATP together with cells (minimal light emission).
The inhibition of the CD39 enzymatic activity in CD39-expressing cells by antibodies was evaluated using Cell Titer Glo™ (Promega, reference G7571) that allows assessment of ATP hydrolysis through use of a reagent that generates a luminescent signal proportional to the amount of ATP present. […] Plates were centrifuged for 2 min at 400 g and 50 μl cell supernatant are transferred in a luminescence microplate (white wells). 50 μl CellTiter-Glo® Reagent (CTG) was added to the supernatant and emitted light was quantified after a 5 min incubation in the dark using a Enspire™ luminometer. […]

[6] = test system: cynomolgus CD39 (CHO-cyCD39); assay: Inhibition of cellular CD39 ATPase activity in CHO-cyCD39 cells; format: cell-based, cynomolgus (Macaca fascicularis)
Description: as §3

binding to CD39-L1 in ELISA [1]: not to any of the human isoforms | binding to human CD39 in ELISA (human CD39): bound; also recorded: binds | binding to cells expressing human CD39 [4]: bound; also recorded: binds | blocking CD39 enzymatic activity in cells expressing human CD39 (human CD39 (CHO-huCD39)): blocks; also recorded: highly potent
B1: I-394: anti-CD39 antibody, VH SEQ ID NO: 6, VL SEQ ID NO: 7; heavy/light chains SEQ ID NOS: 52 and 53 (antibody)
heavy: EVQLQQSGPELVKPGASVKMSCKASGYTFTDYNMHWVKQSHGRTLEWIGYIVPLNGGSTFNQKFKGRATLTVNTSSRTAYMELRSLTSEDSAAYYCARGGTRFAYWGQGTLVTVSAASTKGPSVFPLAPSSKSTSGGTAALGCLVKDYFPEPVTVSWNSGALTSGVHTFPAVLQSSGLYSLSSVVTVPSSSLGTQTYICNVNHKPSNTKVDKRVEPKSCDKTHTCPPCPAPEAEGAPSVFLFPPKPKDTLMISRTPEVTCVVVDVSHEDPEVKFNWYVDGVEVHNAKTKPREEQYNSTYRVVSVLTVLHQDWLNGKEYKCKVSNKALPSSIEKTISKAKGQPREPQVYTLPPSREEMTKNQVSLTCLVKGFYPSDIAVEWESNGQPENNYKTTPPVLDSDGSFFLYSKLTVDKSRWQQGNVFSCSVMHEALHNHYTQKSLSLSPGK
light: DIVLTQSPASLAVSLGQRATISCRASESVDNFGVSFMYWFQQKPGQPPNLLIYGASNQGSGVPARFRGSGSGTDFSLNIHPMEADDTAMYFCQQTKEVPYTFGGGTKLEIKRTVAAPSVFIFPPSDEQLKSGTASVVCLLNNFYPREAKVQWKVDNALQSGNSQESVTEQDSKDSTYSLSSTLTLSKADYEKHKVYACEVTHQGLSSPVTKSFNRGEC
modifications: Chimeric homo sapiens mus musculus
moDC activation as assessed by HLA-DR or CD83 expression [2]: permitted moDC activation; also recorded: lead to moDC activation | binding to cells expressing cynomolgus CD39 [3]: bound; also recorded: binds | inhibition of the enzymatic activity of cellular (cell-membrane bound) CD39 [5]: substantially fully blocks; also recorded: inhibit | potency and maximal inhibition of cellular CD39 compared to BY40 ([5]; FIG. 2A): greater potency and maximal inhibition; also recorded: greater potency at all concentrations as well as greater maximal inhibition | blocking CD39 enzymatic activity in cells expressing cynomolgus CD39 [6]: blocks; also recorded: highly potent
